# Publication PMC10653890, “The morphogenic protein CopD controls the spatio-temporal dynamics of PBP1a and PBP2b in Streptococcus pneumoniae” (mBio, 2023)
# T1: PBP1aTP, transpeptidase domain of PBP1a (Ser266 to Asn650) (S. pneumoniae R800 strain, UniProt Q8DR59 266-650)
# T1 construct: also called PBP1aTP-6his; source: E. coli BL21 star (DE3), purified (Ni-NTA; extracellular domain digested by trypsin; gel filtration)
# T1 sequence (looked up): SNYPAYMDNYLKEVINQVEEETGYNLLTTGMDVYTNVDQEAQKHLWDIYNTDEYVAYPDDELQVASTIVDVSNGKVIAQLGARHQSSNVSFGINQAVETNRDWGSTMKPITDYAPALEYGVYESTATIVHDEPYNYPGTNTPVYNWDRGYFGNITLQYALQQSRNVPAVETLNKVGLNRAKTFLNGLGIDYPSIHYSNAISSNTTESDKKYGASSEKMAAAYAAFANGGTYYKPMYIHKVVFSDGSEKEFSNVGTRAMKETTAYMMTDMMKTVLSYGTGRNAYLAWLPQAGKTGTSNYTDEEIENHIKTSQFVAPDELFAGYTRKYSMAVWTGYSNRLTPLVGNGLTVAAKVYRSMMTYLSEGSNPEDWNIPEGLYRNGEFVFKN
# B1: CopDED, extracellular two-PEPSY domain of CopD (Met38 to Leu162) (domain or fragment)
# chain: SMKPYQTAKSEGEKLAQQYAGLEQADQVDLYNGLESYYSVLGRNKQQEALAVLIGKDDHKIYVYQLNQGISQEKAETVSKEKGAGEIDKITFGRYQDKPIWEVKSGSDFYLVDFETGALVNKEGL
# modifications: labelled with the Protein labeling kit red NHS 2nd generation (Nanotemper)
# How the values were obtained:
# [1] = biological target: T1, PBP1aTP, transpeptidase domain of PBP1a …; experiment: MST; Monolith NT.115; labelled CopDED at 168 nM, PBP2bTP 5.2 µM to 0.159 nM or PBP1aTP 4.5 µM to 0.137 nM; 20 mM HEPES pH 7.5, 300 mM NaCl, 10% glycerol, 0.1% Tween 20; 25°C; conditions: both partners purified
# [2] = biological target: B1; experiment: as above; conditions: both partners purified
Binder,Kd [1],Kd [2]
B1,> 10 µM,
"PBP2bTP, transpeptidase domain of PBP2b (Met39 to Asn685) (domain or fragment) MQVLNKDFYEKKLASASQTKITSSSARGEIYDASGKPLVENTLKQVVSFTRSNKMTATDLKETAKKLLTYVSISSPNLTERQLADYYLADPEIYKKIVEALPSEKRLDSDGNRLSESELYNNAVDSVQTSQLNYTEDEKKEIYLFSQLNAVGNFATGTIATDPLNDSQVAVIASISKEMPGISISTSWDRKVLETSLSSIVGSVSSEKAGLPAEEAEAYLKKGYSLNDRVGTSYLEKQYEETLQGKRSVKEIHLDKYGNMESVDTIEEGSKGNNIKLTIDLAFQDSVDALLKSYFNSELENGGAKYSEGVYAVALNPKTGAVLSMSGIKHDLKTGELTPDSLGTVTNVFVPGSVVKAATISSGWENGVLSGNQTLTDQSIVFQGSAPINSWYTQAYGSFPITAVQALEYSSNTYMVQTALGLMGQTYQPNMFVGTSNLESAMEKLRSTFGEYGLGTATGIDLPDESTGFVPKEYSFANYITNAFGQFDNYTPMQLAQYVATIANNGVRVAPRIVEGIYGNNDKGGLGDLIQQLQPTEMNKVNISDSDMSILHQGFYQVAHGTSGLTTGRAFSNGALVSISGKTGTAESYVADGQQATNTNAVAYAPSDNPQIAVAVVFPHNTNLTNGVGPSIARDIINLYQKYHPMN",,> 10 µM
